Experimental data as given in CN104592390A (SHANGHAI ZHANGJIANG BIOTECHNOLOGY CO LTD; SHANGHAI HAISI …, dated 2015).

Target: T1, 乙型肝炎表面抗原(HBsAg) (Hepatitis B virus)
T1 chain: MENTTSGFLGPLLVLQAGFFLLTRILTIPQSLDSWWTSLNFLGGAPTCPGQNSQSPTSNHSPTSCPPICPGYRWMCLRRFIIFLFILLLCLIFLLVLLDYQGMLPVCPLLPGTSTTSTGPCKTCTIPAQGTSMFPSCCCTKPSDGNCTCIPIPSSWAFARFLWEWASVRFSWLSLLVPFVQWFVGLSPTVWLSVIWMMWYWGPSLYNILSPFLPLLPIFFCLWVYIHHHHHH
Experiment: ELISA affinity determination on HBsAg

B1: C4D2-BsAb (bispecific antibody, human IgG1, kappa)
VH: not shown
VL: DIVMTQSPLSLSVTPGEPASISCRSSQSLLHRSGNNYLDWYLQKPGHSPQLLIYVGSNRASGVPDRFSGSGSGTEYTLKISRVEAEDVGVYYCMQALQTPRTFGQGTKLEIKRTVAAPSVFIFPPELVMTQSPSSLSASVGDRVTITCRASQGIYNSIAWYQQKPGKAPKLLLYSTSTLLSGVPSRFSGSGSGTDYTLTITNLQPEDFATYYCQQYFVTPETFGQGTKVEIKRTVAAPSVFIFPPSDEQLKSGTASVVCLLNNFYPREAKVQWKVDNALQSGNSQESVTEQDSKDSTYSLSSTLTLSKADYEKHKVYACEVTHQGLSSPVTKSFNRGEC
notes: Dual-variable-domain format; also called 双特异性抗体C4D2-BsAb
Q: Which Kd does the source give for B1 here?
A: 3.88 nM
